Legend:
[1] = system: liver membranes; assay: Binding activity of aggregated and monomeric FPLC fractions; details: aggregated form
Method: To separate monomers from multimers of recombinant CS, the preparations were subjected to molecular sieving chromatography on an FPLC apparatus (Pharmacia, Piscataway, N.J.). One hundred micrograms of CS27IVC in a phosphate buffer containing 150 mM NaCl (pH 7.2) was injected into a Superose 12 sizing column (Pharmacia). The protein was eluted in the same buffer using a flow rate of 0.2 ml/min. A high molecular weight fraction ([…]) co-eluted with thyroglobulin. The monomeric form of the protein eluted between amylase (molecular weight=200 kDa) and BSA (molecular weight=66kDa).
The methods described by Lambert, J. M. et al., Biochemistry 17:5406-5416, 1978 were followed. Falciparum-1 at a concentration of 1 mg/ml was incubated with 250 mM Traut's reagent (Pierce Chemical Co., Rockford, Ill.) in 50 mM triethylamine-hydrochloric acid (TEA-HCl) (pH 8.0), 1 mM Mg(Ac)2, and 50 mM KCl for 20 min. on ice. Traut's reagent (0.5 M stock) was prepared immediately before use in a solution containing equal volumes of 1 M TEA-HCl and 1 M TEA-free base. The sulfhydryl-containing falciparum-1 was oxidized in ambient air at 4° C. overnight. The presence of aggregated disulfide-linked falciparum-1 was confirmed both by chromatography in an FPLC sizing column and by Western blotting as described above.
The gold conjugates employed in the foregoing liver section experiments contained no aggregates. […]

[2] = system: rat liver sections; assay: Staining of frozen tissue sections with recombinant CS polypeptides; format: binding; details: revealed with MAb 2A10, fluorescence; CS27IVC 50-5 μg/ml, Falciparum-2 25 μg/ml, Falciparum-1 up to 250 μg/ml
Method: The procedure was carried out essentially as described by Dukor P. et al., Proc. Natl. Acad. Sci. USA 67:991-997, 1970 and Imai Y. et al., J. Cell. Biol. 111:1225-1232, 1990. Rats were euthanized with CO2. Small pieces of the liver, spleen, heart, brain and lung were removed, snap frozen in liquid nitrogen, embedded in Tissue Tek O.C.T. (Miles, Inc., Naperville, Ill.), and cut into 5 μm sections. Sections were dried for 30 min., fixed for 10 min. in 4% paraformaldehyde, rinsed three times with phosphate-buffered saline (PBS), and either used immediately or stored at 4° C. in 1% BSA, 0.5% Tween, PBS (BSA/TPBS). After blocking with 100 mM glycine (pH 7.2) and with BSA/TPBS, the sections were sequentially incubated at 37° C. with recombinant proteins for 1 hr, 10 μg/ml MAb 2A10 for 45 min., and rat anti-mouse immunoglobulin conjugated to fluorescein isothiocyanate (Boehringer Mannheim, Indianapolis, Ind.) for 45 min. The slides were counterstained for 10 min. with 0.3% Evans blue, rinsed extensively in PBS, and finally observed under a fluorescence microscope. For peptide inhibition experiments, the sections were first incubated with the peptide at various concentrations in BSA/TPBS for 1 hour at 37° C., washed six times with BSA/TPBS, and then stained with 2.5 μg/ml CS recombinant protein as described above. In a few experiments, the tissues were fixed for 10 min. with methanol, acetone, or 4% paraformaldehyde containing 0.5% glutaraldehyde.
Frozen sections of various rat organs were incubated with recombinant CS27IVC polypeptide. […] The staining closely followed the sinusoidal spaces of the hepatic lobules, indicating CS binding to the hepatocyte membrane. Other areas of the liver sections and sections of other organs (spleen, lung, heart or brain) were not stained. Control sections (incubated with CS27IVC in the absence of antibody or vice versa) were not stained either.
To define the region of the CS that mediates the perisinusoidal staining various other recombinant constructs were also used in the frozen section assay.

[3] = Solid phase binding assay, cholesterol-3-sulfate; details: steroid dried into microtiter wells
Method: (§1) Solid phase binding assays: Thirty μl of lipids or steroids dissolved in methanol (20-250 μg/ml) were dried into wells of microassay plates (Cat.# 3911—Falcon—Oxnard, Calif.). The plates were then blocked with 1% BSA/PBS pH 7.4 (BSA/PBS) for 30 minutes. Wells were incubated with recombinant protein (or with parasite extract) in PBS/BSA for 1 hour, washed 3 times with BSA/PBS, incubated for 1 hour with monoclonal antibodies 2F2 or 2A10 in BSA/PBS, washed 3 times, and then incubated with (10^5 cpm/well) ^125I protein A (Amersham Corp., Arlington Hts., Ill.). In the case of the P. berghei CS protein, wells were incubated with ^125I labelled mAb 3D11. Wells were washed again and the bound radioactive protein was counted in an LKB gamma-counter (model #1260, Pharmacia, Inc., Gaithersburg, Md.). For inhibition assays, the recombinant proteins were mixed with dilutions of the various polymers in BSA/PBS, the mixture was loaded into the wells of the microtiter plates, and the binding assay performed as above. See also, Roberts, et al. J. Biol. Chem. 260:9405-9411, 1985.
(§2) 1.4 nmol of sulfatide (open squares), cholesterol-3-sulfate (closed triangles), galactocerebroside I (closed circles), galactocerebroside II (open circles) and cholesterol (open triangles) were evaporated into microtiter wells and then incubated with serial dilutions of Vivax-2. […]

[4] = Solid phase binding assay, analogues of sulfatide and cholesterol-3-sulfate; details: dried into microtiter wells
Method: as §1, §2

B1: Falciparum-1: Same as Falciparum-2 minus most of Region II+ (P. falciparum residues 43-348) (protein)
chain: AGTNLYNELEMNYYGKQENWYSLKKNSRSLGENDDGNNNNGDNGREGKDEDKRDGNNEDNEKLRKPKHKKLKQPGDGNPDPNANPNVDPNANPNVDPNANPNVDPNANPNANPNANPNANPNANPNANPNANPNANPNANPNANPNANPNANPNANPNANPNANPNVDPNANPNANPNANPNANPNANPNANPNANPNANPNANPNANPNANPNANPNANPNANPNANPNANPNANPNANPNANPNKNNQGNGQGHNMPNDPNRNVDENANANNAVKNNNNEEPSDKHIEQYLKKIKNSISTEWSP
For B1, the binding activity [1] was “inactive”, the “binding (staining) to frozen liver sections” value [2] was “did not bind” and the “binding to cholesterol-3-sulfate” value [3] was “did not bind”.

B2: Falciparum-2: fragment of P. falciparum CS protein with repeats and Region II+ (residues 43-391) (protein)
chain: AGTNLYNELEMNYYGKQENWYSLKKNSRSLGENDDGNNNNGDNGREGKDEDKRDGNNEDNEKLRKPKHKKLKQPGDGNPDPNANPNVDPNANPNVDPNANPNVDPNANPNANPNANPNANPNANPNANPNANPNANPNANPNANPNANPNANPNANPNANPNANPNVDPNANPNANPNANPNANPNANPNANPNANPNANPNANPNANPNANPNANPNANPNANPNANPNANPNANPNANPNANPNKNNQGNGQGHNMPNDPNRNVDENANANNAVKNNNNEEPSDKHIEQYLKKIKNSISTEWSPCSVTCGNGIQVRIKPGSANKPKDELDYENDIEKKICKMEKCSS
For B2, the “binding to analogues (gangliosides, galactocerebrosides I and II, cholesterol, other steroids)” value [4] was “not”, the “binding (staining) to frozen liver sections” value [2] was “bound to the liver sections” and the “binding to cholesterol-3-sulfate” value [3] was “bind”.

Source: patent US20030119733A1, “Compositions and methods for inhibiting hepatocyte invasion by malarial sporozoites” (New York University, priority 1992, published 2003)
